# Test results published in paper PMC4151696.
# Columns and labels:
# [1] = tested on: TRF2; experiment: EMSA
# [2] = tested on: TRF1; experiment: EMSA
substance,measurement,setting,value
Cy3 telomeric PCR product (255 bp),K half,[1],111 nM
same,K half,[2],152 nM
